Results reported in patent US20220127350A1 (NUMAB THERAPEUTICS, published 2022).

Columns and labels:
human IL-17A [1] = target: T1, human IL-17A (human, UniProt Q16552 24-155); experiment: competitive ELISA, blocking of IL-17A/IL-17RA interaction (summary table)
T1 construct: Recombinant human IL-17A (Peprotech Cat. No. 200-17), disulfide-linked homodimer from E. coli; Biotinylated or RPE-labelled in some assays; also called hIL-17A; IL-17A-RPE (labelled)
Protocol: (§1) Finally, Tetramethylbenzidine solution was added to develop the plate for 5 to 10 minutes and the reaction was stopped with 1 M HCl. The plate was read at 450 nm and 570 nm (reference wavelength).

human IL-17A [2] = target: T1, human IL-17A; experiment: competitive ELISA: biotinylated human IL-17A preincubated with the trispecific molecule, then binding to coated IL-17RA detected (blocked ligand: IL-17RA) [right panel]
human IL-17A [3] = target: T1, human IL-17A; experiment: SPR (summary table), affinity to human IL-17, capture setup
Protocol: (§2) In this experiment, the biotinylated antigens were captured using the Biotin-CAPture kit from Biacore. After each analyte injection cycle the CAP sensor chip was regenerated and new antigen was captured. Trispecific molecules were injected as analyte using a dose response multicycle kinetic assay with concentrations of the analyte ranging from 0.35 to 90 nM diluted in running buffer. Obtained sensorgrams were fitted using the 1:1 binding model.

human TNFα [4] = target: T2, human TNFα (human, UniProt P01375 77-233); experiment: SPR (summary table), affinity to human TNF
T2 construct: Biotinylated in the Biacore assay
Protocol: as §2

human TNFα [5] = target: T2, human TNFα; experiment: SPR (Biacore T200), biotinylated antigen captured (Biotin-CAPture), trispecific as analyte;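 note: multicycle dose-response kinetics, analyte at 0.35–90 nM in running buffer, CAP chip regenerated with fresh antigen each cycle, sensorgrams fitted to a 1:1 binding model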
Protocol: as §2

human IL-17A [6] = target: T1, human IL-17A; experiment: as above
Protocol: as §2

cynomolgus monkey IL-17A = target: T3, cynomolgus monkey IL-17A (Macaca fascicularis (cynomolgus monkey)); experiment: as above
T3 construct: also called cyno IL-17A; cyno IL17A
Protocol: as §2

human TNFα [7] = target: T2, human TNFα; experiment: cell-based or functional assay
cynomolgus serum albumin [8] = target: T4, cynomolgus serum albumin (cynomolgus monkey, UniProt A2V9Z4 25-608); experiment: SPR (MASS-1), CSA immobilised, trispecific as analyte, pH 7.4
T4 construct: also called CSA
Protocol: (§3) The binding to human serum albumin (HSA) and cynomolgus serum albumin (CSA) was assessed for purified trispecific molecules by running SPR spectroscopy on a MASS-1 device (Sierra Sensors). HSA was directly immobilized on a high capacity amine sensor chip (Sierra Sensors) and trispecific molecules were injected as analyte using a dose response multicycle kinetic assay with concentrations of the analyte ranging from 0.35 to 90 nM diluted either in running buffer at pH5.5 or pH7.5. Obtained sensorgrams were fitted using the 1:1 binding model. Affinity to CSA was assessed in a similar approach using a CSA immobilized sensor chip.

cynomolgus serum albumin [9] = target: T4, cynomolgus serum albumin; experiment: SPR (MASS-1), CSA immobilised, trispecific as analyte, pH 5.5
Protocol: as §3

human serum albumin [10] = target: T5, human serum albumin (human, UniProt P02768 25-609); experiment: SPR (MASS-1), HSA immobilised, trispecific as analyte, pH 7.4
T5 construct: also called HSA
Protocol: as §3

human serum albumin [11] = target: T5, human serum albumin; experiment: SPR (MASS-1), trispecific immobilised, HSA injected as last analyte
Protocol: (§4) All possible sequences of antigen injection were tested resulting in six possible sequences.
(§5) To evaluate concomitant binding of each antigen to trispecific molecules, the binding level relative to the theoretical Rmax was calculated for each injection using the respective ligand and analyte molecular masses and the immobilization level of the trispecific molecules. The average of the maximum binding relative to theoretical Rmax for each antigen was obtained by averaging individual maximum binding relative to theoretical Rmax obtained for the two injections where the respective antigen was injected as first analyte (in the absence of other bound antigens). Next, the binding relative to the theoretical Rmax of each analyte injection was compared to its average maximum binding to calculate the fraction binding obtained in the presence of other bound antigens. […] The binding levels relative to the theoretical Rmax and the average of maximum binding (binding levels in the absence of other antigens) of each antigen were calculated.

human serum albumin [12] = target: T5, human serum albumin; experiment: SPR (MASS-1), HSA immobilised, trispecific as analyte, pH 5.5
Protocol: as §3

human serum albumin [13] = target: T5, human serum albumin; experiment: SPR (MASS-1), trispecific immobilised, antigens injected sequentially
Protocol: as §4, §5

human TNFα [14] = target: T2, human TNFα; experiment: as above
Protocol: as §4, §5

human IL-17A [15] = target: T1, human IL-17A; experiment: as above
Protocol: as §4, §5

human IL-17A [16] = target: T1, human IL-17A; experiment: competitive ELISA: IL-17RA coated, biotinylated IL-17A preincubated with trispecific molecule
Protocol: as §1

human serum albumin [17] = target: T5, human serum albumin; experiment: SPR (summary table), affinity to HSA at pH 5.5
Protocol: as §3

human TNFα [18] = target: T2, human TNFα; experiment: cell-based or functional assay; remark: listed apart in the source
human IL-17A [19] = target: T1, human IL-17A; experiment: cell-based or functional assay
human IL-17A [20] = target: T1, human IL-17A; experiment: competitive ELISA: biotinylated human IL-17A preincubated with the trispecific molecule, then binding to coated IL-17RA detected (blocked ligand: IL-17RA) [left panel]
human IL-17A [21] = target: T1, human IL-17A; experiment: cell-based or functional assay; remark: listed apart in the source

B1: A7 (trispecific scDb-scFv) (other)
chain: DIQMTQSPSSLSASVGDRVTINCQASESISSWLAWYQQKPGKRPKLLIYKASTLASGVPSRFSGSGSGTDYTLTISSLQPEDFATYYCQGYYLDSSVDDNVFGGGTKLTVLGGGGGSEVQLVESGGGLVQPGGSLRLSCAASGFSFSSDYWMCWVRQAPGKGLEWIGCIYAGDVDDTDYASWARGRFTISRDNSKNTVYLQMNSLRAEDTAVYYCARVDGFDITYFDLWGQGTLVTVSSGGGGSGGGGSGGGGSGGGGSDIQMTQSPSSLSASVGDRVTITCQASQTINYWLAWYQQKPGKAPKLLIYRASTLASGVPSRFSGSGSGTDFTLTISSLQPEDFATYYCQNYYYSTSRSYGFGGGTKLTVLGGGGGSEVQLVESGGGLVQPGGSLRLSCAASGIDFSTYGISWVRQAPGKGLEWIAYIYPDYGITDYASWVNGRFTISLDNAQNTVYLQMNSLRAEDTAVYYCARSGSYYSRGWGAHYFNLWGQGTLVTVSSGGGGSGGGGSDIQMTQSPSSLSASVGDRVTITCQSSESVYSNNQLSWYQQKPGQPPKLLIYDASDLASGVPSRFSGSGSGTDFTLTISSLQPEDFATYYCAGGFSSSSDTAFGGGTKLTVLGGGGGSGGGGSGGGGSGGGGSEVQLVESGGGLVQPGGSLRLSCAASGFSLSSNAMGWVRQAPGKGLEYIGIISVGGFTYYASWAKGRFTISRDNSKNTVYLQMNSLRAEDTATYFCARDRHGGDSSGAFYLWGQGTLVTVSS
notes: Single chain; also called scDb-scFv A7
Human IL-17A [1]
  rel. IC50 (IC50, secukinumab/IC50, test sample, ng/ml): 10.6
Human IL-17A [2]
  IC50 (read off the curve): ~5 ng/mL
Human IL-17A [3]
  Kd: 0.341 nM
Human TNFα [4]
  Kd: 0.122 nM
Human TNFα [5]
  Kd: 0.122 nM
  koff: 3.59e-05 s⁻¹
  kon: 296000 M⁻¹ s⁻¹
Human IL-17A [6]
  Kd: 0.341 nM
  koff: 7.83e-05 s⁻¹
  kon: 229000 M⁻¹ s⁻¹
Cynomolgus monkey IL-17A
  Kd: 0.223 nM
  koff: 5.89e-05 s⁻¹
  kon: 264000 M⁻¹ s⁻¹
Human TNFα [7]
  IC50 in L929 assay, cell viability: 0.01 nM
  rel. IC50 in L929 assay (IC50, A13/IC50, test sample, nM): 1
Cynomolgus serum albumin [8]
  Kd: 1.31 nM
  koff: 0.000215 s⁻¹
  kon: 164000 M⁻¹ s⁻¹
Cynomolgus serum albumin [9]
  Kd: 0.463 nM
  koff: 0.000147 s⁻¹
  kon: 318000 M⁻¹ s⁻¹
Human serum albumin [10]
  Kd: 1.91 nM
  koff: 0.000369 s⁻¹
  kon: 193000 M⁻¹ s⁻¹
Human serum albumin [11]
  relative binding level compared to average maximum binding: ~70%
Human serum albumin [12]
  Kd: 1.32 nM
  koff: 0.000373 s⁻¹
  kon: 284000 M⁻¹ s⁻¹
Human serum albumin [13]
  antigen binding relative to average maximum binding: ≥ 70%
Human TNFα [14]
  antigen binding relative to average maximum binding: ≥ 70%
Human IL-17A [15]
  antigen binding relative to average maximum binding: ≥ 70%
Human IL-17A [16]
  rel. IC50 to secukinumab (IC50, secukinumab/IC50, test sample, ng/ml): 10.6
Human serum albumin [17]
  Kd: 1.32 nM
Human TNFα [18]
  rel. IC50 to A13 (nM) in HT-29 assay, +HSA: 1
  rel. IC50 to A13 (nM) in HT-29 assay, -HSA: 4.8
Human IL-17A [19]
  rel. IC50 to secukinumab (ng/ml) in HT-29 assay, +HSA: 64.5
  rel. IC50 to secukinumab (ng/ml) in HT-29 assay, -HSA: 52

B2: A5 (trispecific tribody, Fab-(scFv)2) (other)
light: DIQMTQSPSSLSASVGDRVTINCQASESISSWLAWYQQKPGKRPKLLIYKASTLASGVPSRFSGSGSGTDYTLTISSLQPEDFATYYCQGYYLDSSVDDNVFGGGTKLTVLGRTRTVAAPSVFIFPPSDEQLKSGTASVVCLLNNFYPREAKVQWKVDNALQSGNSQESVTEQDSKDSTYSLSSTLTLSKADYEKHKVYACEVTHQGLSSPVTKSFNRGECGGGGSGGGGSDIQMTQSPSSLSASVGDRVTITCQSSESVYSNNQLSWYQQKPGQPPKLLIYDASDLASGVPSRFSGSGSGTDFTLTISSLQPEDFATYYCAGGFSSSSDTAFGGGTKLTVLGGGGGSGGGGSGGGGSGGGGSEVQLVESGGGLVQPGGSLRLSCAASGFSLSSNAMGWVRQAPGKGLEYIGIISVGGFTYYASWAKGRFTISRDNSKNTVYLQMNSLRAEDTATYFCARDRHGGDSSGAFYLWGQGTLVTVSS
heavy: EVQLVESGGGLVQPGGSLRLSCAASGIDFSTYGISWVRQAPGKGLEWIAYIYPDYGITDYASWVNGRFTISLDNAQNTVYLQMNSLRAEDTAVYYCARSGSYYSRGWGAHYFNLWGQGTLVTVSSASTKGPSVFPLAPSSKSTSGGTAALGCLVKDYFPEPVTVSWNSGALTSGVHTFPAVLQSSGLYSLSSVVTVPSSSLGTQTYICNVNHKPSNTKVDKKVEPKSCGGGGSGGGGSDIQMTQSPSSLSASVGDRVTITCQASQTINYWLAWYQQKPGKAPKLLIYRASTLASGVPSRFSGSGSGTDFTLTISSLQPEDFATYYCQNYYYSTSRSYGFGGGTKLTVLGGGGGSGGGGSGGGGSGGGGSEVQLVESGGGLVQPGGSLRLSCAASGFSFSSDYWMCWVRQAPGKGLEWIGCIYAGDVDDTDYASWARGRFTISRDNSKNTVYLQMNSLRAEDTAVYYCARVDGFDITYFDLWGQGTLVTVSS
notes: Trispecific tribody
Human IL-17A [1]
  rel. IC50 (IC50, secukinumab/IC50, test sample, ng/ml): 4.9
Human IL-17A [3]
  Kd: 0.575 nM
Human TNFα [4]
  Kd: 0.1 nM
Human TNFα [5]
  Kd: 0.1 nM
Human IL-17A [6]
  Kd: 0.575 nM
Cynomolgus monkey IL-17A
  Kd: 0.523 nM
Human TNFα [7]
  IC50 in L929 assay, cell viability: 0.02 nM
  rel. IC50 in L929 assay (IC50, A13/IC50, test sample, nM): 0.9
Human IL-17A [20]
  IC50 (read off the curve): ~4 ng/mL
Cynomolgus serum albumin [8]
  Kd: 2.47 nM
Cynomolgus serum albumin [9]
  Kd: 0.795 nM
Human serum albumin [10]
  Kd: 2.69 nM
Human IL-17A [21]
  potency to neutralize IL-17A compared to A7: ~2 fold
Human serum albumin [12]
  Kd: 1.66 nM
Human IL-17A [16]
  rel. IC50 to secukinumab (IC50, secukinumab/IC50, test sample, ng/ml): 4.9
Human serum albumin [17]
  Kd: 1.66 nM
Human TNFα [18]
  rel. IC50 to A13 (nM) in HT-29 assay, -HSA: 2.4
Human IL-17A [19]
  rel. IC50 to secukinumab (ng/ml) in HT-29 assay, +HSA: 63
  rel. IC50 to secukinumab (ng/ml) in HT-29 assay, -HSA: 88.9

B3: A6 (trispecific scDb-scFv) (other)
chain: DIQMTQSPSSLSASVGDRVTITCQASQTINYWLAWYQQKPGKAPKLLIYRASTLASGVPSRFSGSGSGTDFTLTISSLQPEDFATYYCQNYYYSTSRSYGFGGGTKLTVLGGGGGSEVQLVESGGGLVQPGGSLRLSCAASGFSLSSNAMGWVRQAPGKGLEYIGIISVGGFTYYASWAKGRFTISRDNSKNTVYLQMNSLRAEDTATYFCARDRHGGDSSGAFYLWGQGTLVTVSSGGGGSGGGGSGGGGSGGGGSDIQMTQSPSSLSASVGDRVTITCQSSESVYSNNQLSWYQQKPGQPPKLLIYDASDLASGVPSRFSGSGSGTDFTLTISSLQPEDFATYYCAGGFSSSSDTAFGGGTKLTVLGGGGGSEVQLVESGGGLVQPGGSLRLSCAASGFSFSSDYWMCWVRQAPGKGLEWIGCIYAGDVDDTDYASWARGRFTISRDNSKNTVYLQMNSLRAEDTAVYYCARVDGFDITYFDLWGQGTLVTVSSGGGGSGGGGSDIQMTQSPSSLSASVGDRVTINCQASESISSWLAWYQQKPGKRPKLLIYKASTLASGVPSRFSGSGSGTDYTLTISSLQPEDFATYYCQGYYLDSSVDDNVFGGGTKLTVLGGGGGSGGGGSGGGGSGGGGSEVQLVESGGGLVQPGGSLRLSCAASGIDFSTYGISWVRQAPGKGLEWIAYIYPDYGITDYASWVNGRFTISLDNAQNTVYLQMNSLRAEDTAVYYCARSGSYYSRGWGAHYFNLWGQGTLVTVSS
notes: Single chain
Human IL-17A [1]
  rel. IC50 (IC50, secukinumab/IC50, test sample, ng/ml): 10
Human IL-17A [2]
  IC50 (read off the curve): ~5 ng/mL
Human IL-17A [3]
  Kd: 0.414 nM
Human TNFα [4]
  Kd: 0.0237 nM
Human TNFα [5]
  Kd: 0.0237 nM
  koff: 2.66e-06 s⁻¹
  kon: 112000 M⁻¹ s⁻¹
Human IL-17A [6]
  Kd: 0.414 nM
  koff: 8.96e-05 s⁻¹
  kon: 216000 M⁻¹ s⁻¹
Human TNFα [7]
  IC50 in L929 assay, cell viability: 0.06 nM
  rel. IC50 in L929 assay (IC50, A13/IC50, test sample, nM): 0.2
Human serum albumin [10]
  Kd: 1.25 nM
  koff: 0.000332 s⁻¹
  kon: 266000 M⁻¹ s⁻¹
Human serum albumin [11]
  relative binding level compared to average maximum binding: ~70%
Human serum albumin [12]
  Kd: 0.77 nM
  koff: 0.000365 s⁻¹
  kon: 475000 M⁻¹ s⁻¹
Human serum albumin [13]
  antigen binding relative to average maximum binding: ≥ 70%
Human TNFα [14]
  antigen binding relative to average maximum binding: ≥ 70%
Human IL-17A [15]
  antigen binding relative to average maximum binding: ≥ 70%
Human IL-17A [16]
  rel. IC50 to secukinumab (IC50, secukinumab/IC50, test sample, ng/ml): 10
Human serum albumin [17]
  Kd: 0.77 nM
Human TNFα [18]
  rel. IC50 to A13 (nM) in HT-29 assay, +HSA: 1
  rel. IC50 to A13 (nM) in HT-29 assay, -HSA: 0.6
Human IL-17A [19]
  rel. IC50 to secukinumab (ng/ml) in HT-29 assay, +HSA: 26.8
  rel. IC50 to secukinumab (ng/ml) in HT-29 assay, -HSA: 30
